Reference: paper PMC12072117

Target: cyclin-dependent kinase 1 (CDK1) (Xenopus laevis (endogenous in oocyte CSF extract))

Substance “glutathione S-transferase-tagged cell division cycle 6 (GST-CDC6) (natural protein)” has a histone H1 kinase activity of CDC6-depleted CSF extract with 10 to 20 nM GST-CDC6 added (about 40% less with 10 nM, 45% less with 20 nM) of 45 % less.
